For assay [1], the target named is T1, Her2Fc (UniProt P04626 23-652, limits assumed).
T1 construct: It is printed both as Her2Fc and as FcHer2; also called FcHer2; FcHer2 antigen; not shown: Fc part
Briefly: flow cytometry, transduced T cells incubated with Her2Fc (FIG. 2). The method, then: T-cells had been incubated with Her2Fc, which later was detected via flow cytometry. The presented data was gated on CD8+ lymphocytes. The shown gates were chosen based on the untransduced control.

The target in assay [2] is T1, Her2Fc. Briefly: flow cytometry, engineered PBMC, NGFR marker and FcHer2 (FIG. 16B).
The target of a further assay is Lck (UniProt P06239 2-509, limits assumed). Briefly: pull-down from 293TM lysates on Her2 antigen beads, western blot for Lck. The method, then:
In FIG. 13A, Her2 antigen was covalently attached to magnetic beads. […] Beads were incubated with cell lysates over night and subsequently washed and western blotted. Lck was detected using an Lck antibody, TACs were detected via Myc antibody. […] Signal was corrected relative to the negative control.
For orientation: In western blotting, separated proteins are transferred to a membrane and probed.

Sequence of Lck (P06239 2-509 limits assumed): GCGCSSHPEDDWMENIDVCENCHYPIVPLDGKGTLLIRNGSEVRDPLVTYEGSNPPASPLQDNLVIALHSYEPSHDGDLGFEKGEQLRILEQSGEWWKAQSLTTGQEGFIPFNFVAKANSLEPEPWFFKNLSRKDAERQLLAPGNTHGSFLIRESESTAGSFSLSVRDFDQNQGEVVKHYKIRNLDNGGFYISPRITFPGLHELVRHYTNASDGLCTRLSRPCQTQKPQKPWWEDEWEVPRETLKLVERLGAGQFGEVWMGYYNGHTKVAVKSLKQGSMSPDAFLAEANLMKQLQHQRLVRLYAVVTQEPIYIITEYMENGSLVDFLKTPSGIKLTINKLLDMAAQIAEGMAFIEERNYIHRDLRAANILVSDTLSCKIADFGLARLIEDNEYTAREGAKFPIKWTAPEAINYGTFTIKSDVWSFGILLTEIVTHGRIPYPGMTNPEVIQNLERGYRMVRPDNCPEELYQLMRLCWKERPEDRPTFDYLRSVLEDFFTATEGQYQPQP

B1: N-Darpin Tri-TAC (receptor)
chain: MSRGSDLGKKLLEAARAGQDDEVRILMANGADVNAKDEYGLTPLYLATAHGHLEIVEVLLKNGADVNAVDAIGFTPLHLAAFIGHLEIAEVLLKHGADVNAQDKFGKTAFDISIGNGNEDLAEILQKLNEQKLISEEDLNPGGGGGSGGGGSGGGGSGGGGSGSMDIQMTQTTSSLSASLGDRVTISCRASQDIRNYLNWYQQKPDGTVKLLIYYTSRLHSGVPSKFSGSGSGTDYSLTISNLEQEDIATYFCQQGNTLPWTFAGGTKLEIKGGGGSGGGGSGGGGSGGGGSEVQLQQSGPELVKPGASMKISCKASGYSFTGYTMNWVKQSHGKNLEWMGLINPYKGVSTYNQKFKDKATLTVDKSSSTAYMELLSLTSEDSAVYYCARSGYYGDSDWYFDVWGQGTTLTVFSTSGGGGSLESGQVLLESNIKVLPTWSTPVQPMALIVLGGVAGLLLFIGLGIFFCVRCRHRRRQAERMSQIKRLLSEKKTCQCPHRFQKTCSPI
notes: Chimeric receptor expressed on engineered human T cells (in 293TM cells for the pull-down); also called full length CD4-TAC
With B1, the binding result with Her2Fc [1] is listed as “binds”.

B2: CD4 TAC A85V, T161P mutant (receptor)
chain: MSRGSDLGKKLLEAARAGQDDEVRILMANGADVNAKDEYGLTPLYLATAHGHLEIVEVLLKNGADVNAVDAIGFTPLHLAAFIGHLEIAEVLLKHGADVNAQDKFGKTAFDISIGNGNEDLAEILQKLNEQKLISEEDLNPGGGGGSGGGGSGGGGSGGGGSGSMDIQMTQTTSSLSASLGDRVTISCRASQDIRNYLNWYQQKPDGTVKLLIYYTSRLHSGVPSKFSGSGSGTDYSLTISNLEQEDIVTYFCQQGNTLPWTFAGGTKLEIKGGGGSGGGGSGGGGSGGGGSEVQLQQSGPELVKPGASMKISCKASGYSFTGYPMNWVKQSHGKNLEWMGLINPYKGVSTYNQKFKDKATLTVDKSSSTAYMELLSLTSEDSAVYYCARSGYYGDSDWYFDVWGQGTTLTVFSTSGGGGSLESGQVLLESNIKVLPTWSTPVQPMALIVLGGVAGLLLFIGLGIFFCVRCRHRRRQAERMSQIKRLLSEKKTCQCPHRFQKTCSPI
notes: CD4 TAC with the mutated UCHT1 domain; also called UCHT1 (A85V, T161P)
For B2, the binding result with Her2Fc [2] is on record as “binds”.

B3: CD4 TAC -cytosol (receptor)
chain: MSRGSDLGKKLLEAARAGQDDEVRILMANGADVNAKDEYGLTPLYLATAHGHLEIVEVLLKNGADVNAVDAIGFTPLHLAAFIGHLEIAEVLLKHGADVNAQDKFGKTAFDISIGNGNEDLAEILQKLNEQKLISEEDLNPGGGGGSGGGGSGGGGSGGGGSGSMDIQMTQTTSSLSASLGDRVTISCRASQDIRNYLNWYQQKPDGTVKLLIYYTSRLHSGVPSKFSGSGSGTDYSLTISNLEQEDIATYFCQQGNTLPWTFAGGTKLEIKGGGGSGGGGSGGGGSGGGGSEVQLQQSGPELVKPGASMKISCKASGYSFTGYTMNWVKQSHGKNLEWMGLINPYKGVSTYNQKFKDKATLTVDKSSSTAYMELLSLTSEDSAVYYCARSGYYGDSDWYFDVWGQGTTLTVFSTSGGGGSLESGQVLLESNIKVLPTWSTPVQPMALIVLGGVAGLLLFIGLGIFF
notes: It was detected through its Myc tag in the pull-down; also called TAC cytosolic deletion variant; cytosolic deletion
Regarding B3, in the assay with Lck, the binding result is “no binding”.

Values taken from patent publication US20230212258A1 (MCMASTER UNIVERSITY, published 2023).
